In paper PMC2799296 (Biochemistry, 2009):

Target: the molecule itself
Experiment: cryo-EM structure

B1: bacteriophage Qβ coat protein, wild-type (133 amino acids, lacking the A1 extension) (natural protein)
chain: MAKLETVTLGNIGKDGKQTLVLNPRGVNPTNGVASLSQAGAVPALEKRVTVSVSQPSRNRKNYKVQVKIQNPTACTANGSCDPSVTRQAYADVTFSFTQYSTDEERAFVRTELAALLASPLLIDAIDQLNPAY
- binding result: binds
